This data set is described as follows: protein stability index of a GFP-peptide fusion (GPS, HEK-293T) (PSI 1-6); higher = more stable.
Setting [1] is: treatment: DMSO, c terminus: a fixed tail appended.
Setting [2] is: treatment: MLN4924 1 uM, 8 h, c terminus: a fixed tail appended.

± gives the standard deviation.
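Note: 24-mer peptide tiles fused after GFP, lentivirally expressed, FACS-sorted into six equal bins by GFP/DsRed ratio, decoded by Illumina sequencing, PSI is the read-weighted mean bin number.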

In the case of IRDLDVVVVSVAGAFRKGKSFILD [ATL3], the protein stability index by setting is: under setting [1], 2.3 ± 0.64; under setting [2], 2.34 ± 0.45.

As to IRQEFDKLREFLRVEEQAILDAMA [TRIM35], the protein stability index reads like this: under setting [1], 2.91 ± 0.31; under setting [2], 2.97 ± 0.69.

For the sequence IRTKLNYNPPKDDGSTYKIELEGI [GAN], the protein stability index was 2.76 ± 0.1 under setting [1] and 2.84 ± 0.39 under setting [2].

The sequence IRTSERVTLIVDNTRFVVDPSIFT [BTBD10] displayed a protein stability index under setting [1] of 2.35 ± 0.41 and a protein stability index under setting [2] of 2.36 ± 0.45.

On to ISDNPERYSTNLSNHVDDFTTFRG [EDNRA], for which the protein stability index was 3.87 ± 0.34 under setting [1] and 3.95 ± 0.42 under setting [2].

The sequence ISRKLGDMRNSATFKSFEDRVGTI [TPD52L2] displayed a protein stability index under setting [1] of 2.98 ± 0.22 and a protein stability index under setting [2] of 3.07 ± 0.24.

With ISTSGQAGTSSHGCWAWPLAGLSV [PXN], the protein stability index runs as follows: under setting [1], 2.33 ± 0.47; under setting [2], 2.25 ± 0.26.

ISVEGINHDIRTANDGDYWRLLNP [CPXM2]: the protein stability index under setting [1] came to 2.64 ± 0.44 and the protein stability index under setting [2] turned out to be 2.7 ± 0.44.

On to ITDSYPVVKRREGPAGHSKGELAP [POLD4], for which the protein stability index was 3.42 ± 0.47 under setting [1] and 4.21 ± 0.45 under setting [2].

Turning to ITERDKRPEGYNLKDEEGKLKDLS [PPP2R2C], the protein stability index came to 5.51 ± 0.23 under setting [1] and 5.54 ± 0.13 under setting [2].

On to ITNTDVDCLKACQEQIEAVLLNSL [CCND2], for which the protein stability index reads like this: under setting [1], 2.73 ± 0.2; under setting [2], 2.86 ± 0.39.

Sequence ITPQGVAMRAGVLADDHLIEVNGE [PDZK1] registered a protein stability index under setting [1] of 4.72 ± 0.095 and a protein stability index under setting [2] of 4.78 ± 0.22.

As for IYEFWENSSVWNSHLQTNYSKTFQ [NECAB1], the protein stability index is, setting by setting: under setting [1], 2.28 ± 0.31; under setting [2], 2.16 ± 0.26.

With IYSLRNKEFKSALCKIVRRTISLL [OR10K2], the protein stability index turned out to be 2.74 ± 1.2 under setting [1] and 2.17 ± 0.49 under setting [2].

As to KADTKGFCNISLFEDLPLQEPQSP [PLAGL1], the protein stability index under setting [1] stood at 4.46 ± 0.14 and the protein stability index under setting [2] came out at 4.61 ± 0.12.

With KAIKQKLWEALCSQGAISEGAQRD [C22orf31], the protein stability index by setting is: under setting [1], 2.72 ± 0.27; under setting [2], 2.85 ± 0.065.

For KCSDCGKAFLTKTMLIVHHRTHTG [ZNF649], the protein stability index runs as follows: under setting [1], 2.84 ± 0.27; under setting [2], 3.05 ± 0.45.

Consider KDIAHFWELGGGTSLLDLISIPIT [DYNC2LI1], for which the protein stability index runs as follows: under setting [1], 2.54 ± 0.54; under setting [2], 2.07 ± 0.24.

On to KDSVMQQNLVYYRFHRARWGLEEE [P3H4], for which the protein stability index is, setting by setting: under setting [1], 2.51 ± 0.28; under setting [2], 2.43 ± 0.085.

Consider KDVRAPSRPAVGPPQPGCPAFIIV [ZSWIM9], for which the protein stability index came out at 2.23 ± 0.75 under setting [1] and 2.43 ± 0.6 under setting [2].

Regarding KEEEQSCEYETRLPGNHSTSQEIF [ZNF232], the protein stability index runs as follows: under setting [1], 5.02 ± 0.3; under setting [2], 5 ± 0.13.

As to KEEGTVNGASWHTVAGSLNDFSYL [CPXM2], the protein stability index reads like this: under setting [1], 3.35 ± 0.53; under setting [2], 3.33 ± 0.34.

In the case of KEGPMIHSGSVVGAGLPQFQSISL [CLCN6], the protein stability index runs as follows: under setting [1], 2.91 ± 0.12; under setting [2], 2.86 ± 0.35.

On to KEHAVTMPCTWVMACAYAPSGCAI [GNB5], for which the protein stability index was determined as 2.8 ± 0.36 under setting [1] and 2.49 ± 0.59 under setting [2].

Take KENQDIRLLQAQLQAQKEELQSLM [PBXIP1]: the protein stability index worked out at 4.05 ± 0.12 under setting [1] and 4.14 ± 0.22 under setting [2].

On to KEQAIWKHPQPAPAVTPDPWGVQG [PKD2L1], for which the protein stability index was determined as 3.75 ± 0.22 under setting [1] and 4.07 ± 0.31 under setting [2].

For KGCLKLCRRCYDWIHRPGCRCKNS [SPRY1], the protein stability index by setting is: under setting [1], 3.04 ± 0.2; under setting [2], 3.46 ± 0.2.

With KGGLVWDENSSDGRYVKENCKPLK [CLK3], the protein stability index under setting [1] was 4.53 ± 0.098 and the protein stability index under setting [2] stood at 4.82 ± 0.12.

KGKYNISSEDYRQLELVILQSEPH [KCNK9] gave a protein stability index under setting [1] of 2.87 ± 0.28 and a protein stability index under setting [2] of 2.93 ± 0.29.

Regarding KHFLEAIENNKYGWFWVCPGGGDI [ZC3H15], the protein stability index under setting [1] was determined as 2.8 ± 0.4 and the protein stability index under setting [2] turned out to be 2.43 ± 0.39.

Take KIWRTPNGKTIEMDTQFTIRAREL [IQUB]: the protein stability index is 2.55 ± 0.24 under setting [1] and 2.66 ± 0.19 under setting [2].

For KKEQRRLGIPKNPWLWSEQQVCQW [ETS2], the protein stability index by setting is: under setting [1], 2.12 ± 0.18; under setting [2], 2.43 ± 0.43.

Consider KKPPEESTCFERPCFKWYTSPWSE [ADAMTSL2], for which the protein stability index reads like this: under setting [1], 2.67 ± 0.14; under setting [2], 2.88 ± 0.42.

As for KKSELLQRITQEQEKKLSFIEALI [TRIM63], the protein stability index stood at 2.07 ± 0.3 under setting [1] and 2.41 ± 0.35 under setting [2].

Turning to KKTCRRINYCALNKPGCEHECVNM [MATN2], the protein stability index runs as follows: under setting [1], 2.8 ± 0.38; under setting [2], 2.95 ± 0.74.

Consider KLEISTKEVPVVHTETKTITYESS [EPB41L3], for which the protein stability index stood at 4.83 ± 0.14 under setting [1] and 4.64 ± 1 under setting [2].

In turn, KLGLGIDEDEVAAEEPNAAVPDEI [HSP90AB1] displayed a protein stability index under setting [1] of 5.8 ± 0.18 and a protein stability index under setting [2] of 5.48 ± 0.24.

For KLTDFGFAKKLVDRTWTLCGTPEY [PRKX], the protein stability index by setting is: under setting [1], 2.12 ± 0.11; under setting [2], 2.27 ± 0.23.

In the case of KLTKESYPVVVAESMYGDFQEAMT [TENT5D], the protein stability index worked out at 3.16 ± 0.2 under setting [1] and 3.41 ± 0.37 under setting [2].

Take KMAVSRHLTRGRKMAHVIAACLYL [BRF1]: the protein stability index amounted to 2.81 ± 0.37 under setting [1] and 2.6 ± 0.56 under setting [2].

Consider KMKGFGFWPAKVMQKEDNQVDVRF [ZMYND11], for which the protein stability index turned out to be 3.11 ± 0.39 under setting [1] and 3.11 ± 0.34 under setting [2].

For KMKKLGQAMEEDLIVGLQGMDLNL [HDAC6], the protein stability index came out at 3.86 ± 0.24 under setting [1] and 3.5 ± 0.43 under setting [2].

Turning to KMLGNPSRLPAKCPGKGAWSIPWK [FKBP8], the protein stability index turned out to be 2.08 ± 0.26 under setting [1] and 2.25 ± 0.23 under setting [2].

KMLSKAVDALKSDKKVRTIIIRSE [AUH]: the protein stability index came to 1.81 ± 0.26 under setting [1] and 2 ± 0.6 under setting [2].

In the case of KNANRPLLDEIVPVYRRDCHEEVY [ACBD3], the protein stability index is, setting by setting: under setting [1], 3.88 ± 0.1; under setting [2], 3.74 ± 0.15.

KNDGRIDAQEIMQSLRDLGVKISE [SLC25A25]: the protein stability index under setting [1] amounted to 3.19 ± 0.21 and the protein stability index under setting [2] came to 3.29 ± 0.27.

Regarding KNLLHAEFLRVQEERILHQQVKCI [VPS39], the protein stability index runs as follows: under setting [1], 2.58 ± 0.16; under setting [2], 2.71 ± 0.26.

For KPEAPLHLPVTFPGKDYDADRQCQ [ADAMTS4], the protein stability index under setting [1] worked out at 5.05 ± 0.15 and the protein stability index under setting [2] was 5.13 ± 0.22.

On to KPFVSVFRHLRLQYIISDLASARI [GMCL1], for which the protein stability index is, setting by setting: under setting [1], 3.07 ± 0.69; under setting [2], 2.78 ± 0.85.

As for KPWDFPSVHNDLWESWFVPDPAGI [GLT8D2], the protein stability index by setting is: under setting [1], 2.96 ± 0.38; under setting [2], 2.69 ± 0.16.

Consider KPYDPPGEKMVAAKVKGEKLDKKL [ATF4], for which the protein stability index was found to be 5.12 ± 0.21 under setting [1] and 5.12 ± 0.056 under setting [2].

Take KQTQCPADPLQLNKALSIILHLIC [FEM1C]: the protein stability index is 1.91 ± 0.17 under setting [1] and 2.21 ± 0.39 under setting [2].

With KRRPKAQPTTLVLPPQYVDDVISR [MED27], the protein stability index reads like this: under setting [1], 4.03 ± 0.12; under setting [2], 4.06 ± 0.17.

As for KRVYEEFTKVVQPQEEIATKKLRL [INTS4], the protein stability index is 3.31 ± 0.33 under setting [1] and 3.86 ± 0.36 under setting [2].

Regarding KSIGSEPHEDHVFLVANFSQIETL [MATN2], the protein stability index reads like this: under setting [1], 2.92 ± 0.47; under setting [2], 2.8 ± 0.25.

KSKTRSLLKRMESLKLKSSHHSKH [DLC1] had a protein stability index under setting [1] of 3.48 ± 0.14 and a protein stability index under setting [2] of 3.53 ± 0.16.

KSSSSSSSSSSSSSSSSSSSSSGP [TMEM40]: the protein stability index by setting is: under setting [1], 5.29 ± 0.15; under setting [2], 5.3 ± 0.1.

Take KSVLKSDEEHMEEAITSASFLEQI [FAM189A2]: the protein stability index by setting is: under setting [1], 4.76 ± 0.31; under setting [2], 4.85 ± 0.2.

Sequence KSVQHVVLQALFYLLDRAVDSFET [PTPN9] registered a protein stability index under setting [1] of 3.21 ± 0.38 and a protein stability index under setting [2] of 2.58 ± 0.41.

KTTIPEEEEEEEEAAGVVVEEELF [LMNB1]: the protein stability index runs as follows: under setting [1], 5.55 ± 0.29; under setting [2], 5.62 ± 0.2.

In the case of KTVDKHSDEYKIRRERNNIAVRKS [CEBPB], the protein stability index came to 4.59 ± 0.17 under setting [1] and 4.79 ± 0.39 under setting [2].

Take KVQDALQNQSDSLLALAGAVQRLE [SCARA5]: the protein stability index came to 3.16 ± 0.24 under setting [1] and 3.29 ± 0.33 under setting [2].

For KVVLIGDSGVGKSNLLSRFTRNEF [RAB11A], the protein stability index by setting is: under setting [1], 2.33 ± 0.19; under setting [2], 2.28 ± 0.39.

Take KWLLWTEHQYRLPPMGKAFQELAG [SPDEF]: the protein stability index turned out to be 2.44 ± 0.55 under setting [1] and 2.16 ± 0.48 under setting [2].

Take KYDMEVRVQKTSKELEDMNQKLFD [TNNI2]: the protein stability index runs as follows: under setting [1], 4.81 ± 0.13; under setting [2], 4.73 ± 0.2.

For the sequence LADKELVHMISWAKKIPGMRGNA [ESR2], the protein stability index is, setting by setting: (treatment: DMSO, c terminus: native) 2.95 ± 0.85; (treatment: MLN4924 1 uM, 8 h, c terminus: native) 2.56 ± 0.7.

LAIKKQQHIDNITQIEDATEKLKA [TRIM14] displayed a protein stability index under setting [1] of 4.41 ± 0.27 and a protein stability index under setting [2] of 4.38 ± 0.21.

Regarding LAQIAEVLEMFDLRMMVENIMNKE [RHOBTB1], the protein stability index amounted to 2.54 ± 0.35 under setting [1] and 2.22 ± 0.12 under setting [2].

As to LASAYTGRLSMAAADIVNFLTVGS [ZBTB22], the protein stability index is 2.77 ± 0.28 under setting [1] and 3.09 ± 0.66 under setting [2].

LAYGSVITVKNLRMAIGYLHSHRH [POMT2]: the protein stability index under setting [1] stood at 2.53 ± 0.69 and the protein stability index under setting [2] is 2.63 ± 0.65.

For LCKVLGVLFSVAGGLFVGKEGPMI [CLCN6], the protein stability index by setting is: under setting [1], 2.73 ± 0.25; under setting [2], 2.89 ± 0.5.

For the sequence LCRAQRERLASANLRVLVDCILRD [TEKT4], the protein stability index was 2.08 ± 0.58 under setting [1] and 2.41 ± 0.21 under setting [2].

The record behind these values is the supplement of paper PMC10567573.
